We go through 3 molecules from patent publication US20130317087A1 (UNIVERSITY OF ROCHESTER, published 2013).

One data set addresses T1, hSTAU1^55-HA3 (human, UniProt O95793-2 1-496).
T1 construct: also called STAU1-HA3
T1 sequence (looked up): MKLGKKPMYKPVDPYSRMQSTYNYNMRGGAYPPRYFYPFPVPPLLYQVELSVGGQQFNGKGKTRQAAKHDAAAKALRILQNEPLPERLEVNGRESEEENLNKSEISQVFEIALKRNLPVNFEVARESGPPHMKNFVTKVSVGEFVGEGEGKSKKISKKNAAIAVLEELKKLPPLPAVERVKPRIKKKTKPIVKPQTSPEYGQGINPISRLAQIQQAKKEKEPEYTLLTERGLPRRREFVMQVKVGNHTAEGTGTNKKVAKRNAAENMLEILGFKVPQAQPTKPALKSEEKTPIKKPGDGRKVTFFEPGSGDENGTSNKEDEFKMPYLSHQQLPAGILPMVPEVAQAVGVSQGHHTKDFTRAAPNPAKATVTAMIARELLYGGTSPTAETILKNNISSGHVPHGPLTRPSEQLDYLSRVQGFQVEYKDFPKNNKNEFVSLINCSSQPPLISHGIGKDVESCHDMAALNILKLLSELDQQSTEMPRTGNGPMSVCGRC
The data set is described as follows: anti-FLAG and anti-HA co-IP from HEK293T lysates with RNase A. The text has this: To test this idea, HEK293T cells were transiently transfected with hSTAU1⁵⁵-HA₃ and one of three siRNA-resistant (R) plasmids that produce either hSTAU1^{55(R)}-FLAG, hSTAU1^{55(R)}Δ(C-Term)-FLAG or hSTAU1^{55(R)}Δ(SSM-‘RBD’5)-FLAG, each of which was expressed at the level of cellular hSTAU 1. hSTAU1^{55(R)}Δ(C-Term)-FLAG lacks all amino acids C-terminal to ‘RBD’5 Δ1. Cell lysates were immunoprecipitated in the presence of RNaseA using anti-FLAG or, as a negative control, mIgG.

Data set [1] concerns the molecule itself. In words: sedimentation velocity analytical ultracentrifugation, rapid monomer-dimer equilibrium model. Here is the method:
After purifying GST-hSTAU1⁵⁵(367-476) from E. coli and removing the GST tag, SSM-‘RBD’5 migrated during gel filtration at the size of a dimer Sedimentation velocity determinations using analytical ultracentrifugation confirmed that the average weight distribution of SSM-‘RBD’5 shifted to lower Svedberg values at lower concentrations (FIG. 10C).
hSTAU1-SSM-‘RBD’5 was purified as above, except the final GF buffer contained 2.97 mM DTT, and submitted to the University of Connecticut Analytical Ultracentrifugation Facility for sedimentation velocity analysis. […] Measuring refractive index rather than absorbance was especially useful considering the low extinction coefficient at A₂₈₀ that typifies SSM-‘RBD’5; which lacks tryptophan residues. […] Data were analyzed using: 1) DcDt+, version 2.0.9 (Philo, 2000; 2006), to determine the sedimentation coefficient distribution that was independent of a model, 2) Sedfit, version 10.09beta (Schuck, 2000), to produce a model-based continuous sedimentation coefficient distribution using the Lamm equation or c(s) to identify the number of species (e.g., monomers vs dimers) in solution, and 3) Sedanal, version 5.60 to combine datasets from the three highest of four concentrations tested, perform a global analysis, and determine the protein association model using the Lamm equation.

B1: hSTAU1^55(R)-FLAG (other, human, UniProt O95793-2 1-496, looked up, not shown: small tags and cut ends)
chain: T1 sequence (looked up)
notes: Expressed in HEK293T cells at the level of cellular hSTAU1; also called product of pcI-neo-hSTAU1^55(R)-FLAG
On to B1, for which the binding result in the data set with hSTAU1^55-HA3 is “binds”.

B2: hSTAU1 SSM-‘RBD’5 (hSTAU1^55 amino acids 367-476, GST tag removed) (other)
chain: GPLGSKATVTAMIARELLYGGTSPTAETILKNNISSGHVPHGPLTRPSEQLDYLSRVQGFQVEYKDFPKNNKNEFVSLINCSSQPPLISHGIGKDVESCHDMAALNILKLLSELD
notes: Made in E. coli as a GST fusion from pGEX-6p-1, GST cleaved off; In monomer-dimer equilibrium; also called SSM-‘RBD’5(WT); hSTAU1^55(367-476)
The Kd is the free concentration of one partner at which half of the binding sites on the other are occupied at equilibrium, for simple one-to-one binding. For B2, the affinity in data set [1], expressed as Kd, was 79 µM.

B3: hSTAU1^55(R)Δ(C-Term)-FLAG (other, human, UniProt O95793-2 1-422, looked up, not shown: small tags and cut ends)
chain: MKLGKKPMYKPVDPYSRMQSTYNYNMRGGAYPPRYFYPFPVPPLLYQVELSVGGQQFNGKGKTRQAAKHDAAAKALRILQNEPLPERLEVNGRESEEENLNKSEISQVFEIALKRNLPVNFEVARESGPPHMKNFVTKVSVGEFVGEGEGKSKKISKKNAAIAVLEELKKLPPLPAVERVKPRIKKKTKPIVKPQTSPEYGQGINPISRLAQIQQAKKEKEPEYTLLTERGLPRRREFVMQVKVGNHTAEGTGTNKKVAKRNAAENMLEILGFKVPQAQPTKPALKSEEKTPIKKPGDGRKVTFFEPGSGDENGTSNKEDEFKMPYLSHQQLPAGILPMVPEVAQAVGVSQGHHTKDFTRAAPNPAKATVTAMIARELLYGGTSPTAETILKNNISSGHVPHGPLTRPSEQLDYLSRVQGFQ
notes: domain: lacks all amino acids C-terminal to ‘RBD’5 α1; End at residue 422 is read from the primer; also called product of pcI-neo-hSTAU1^55(R)Δ(C-Term)-FLAG
In the case of B3, the binding result in the data set with hSTAU1^55-HA3 is “binds”.
